This test concerns the target T1, FLAG-hSIRT1-FL (full length human SIRT1, FLAG-tagged) (human, UniProt Q96EB6 1-747).
T1 sequence (looked up): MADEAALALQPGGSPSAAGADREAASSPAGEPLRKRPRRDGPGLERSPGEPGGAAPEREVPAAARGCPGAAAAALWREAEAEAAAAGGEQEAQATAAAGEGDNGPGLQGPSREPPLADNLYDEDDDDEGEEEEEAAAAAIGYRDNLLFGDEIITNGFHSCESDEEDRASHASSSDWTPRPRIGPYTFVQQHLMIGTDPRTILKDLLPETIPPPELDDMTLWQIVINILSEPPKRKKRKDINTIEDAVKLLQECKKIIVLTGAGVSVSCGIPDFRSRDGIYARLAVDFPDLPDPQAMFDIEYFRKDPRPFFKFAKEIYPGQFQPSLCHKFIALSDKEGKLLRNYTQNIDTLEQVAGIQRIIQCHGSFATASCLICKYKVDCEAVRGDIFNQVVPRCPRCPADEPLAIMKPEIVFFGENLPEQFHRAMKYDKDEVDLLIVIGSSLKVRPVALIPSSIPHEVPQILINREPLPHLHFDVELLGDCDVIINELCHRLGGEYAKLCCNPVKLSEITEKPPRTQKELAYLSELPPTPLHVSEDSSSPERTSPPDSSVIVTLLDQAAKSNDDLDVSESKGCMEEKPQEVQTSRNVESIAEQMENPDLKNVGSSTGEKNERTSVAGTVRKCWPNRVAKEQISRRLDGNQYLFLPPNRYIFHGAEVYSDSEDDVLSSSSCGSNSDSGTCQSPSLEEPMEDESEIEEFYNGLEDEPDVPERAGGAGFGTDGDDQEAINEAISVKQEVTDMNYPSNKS
The test can be described thus: pull-down.

B1: GST-TDG(67–308) (domain or fragment, human, UniProt Q13569 67-308, looked up)
chain: TTEPKQPVEPKKPVESKKSGKSAKSKEKQEKITDTFKVKRKVDRFNGVSEAELLTKTLPDILTFNLDIVIIGINPGLMAAYKGHHYPGPGNHFWKCLFMSGLSEVQLNHMDDHTLPGKYGIGFTNMVERTTPGSKDLSSKEFREGGRILVQKLQKYQPRIAVFNGKCIYEIFSKEVFGVKVKNLEFGLQPHKIPDTETLCYVMPSSSARCAQFPRAQDKVHYYIKLKDLRDQLKGIERNMDV
In the case of B1, the binding result was “binds”.
